We go through two molecules from PMC7311471, “The iron–sulphur cluster in human DNA2 is required for all biochemical activities of DNA2”.

Series [1] addresses T1, DNA2 D277A (human, UniProt P51530 1-1060, D277A).
T1 sequence: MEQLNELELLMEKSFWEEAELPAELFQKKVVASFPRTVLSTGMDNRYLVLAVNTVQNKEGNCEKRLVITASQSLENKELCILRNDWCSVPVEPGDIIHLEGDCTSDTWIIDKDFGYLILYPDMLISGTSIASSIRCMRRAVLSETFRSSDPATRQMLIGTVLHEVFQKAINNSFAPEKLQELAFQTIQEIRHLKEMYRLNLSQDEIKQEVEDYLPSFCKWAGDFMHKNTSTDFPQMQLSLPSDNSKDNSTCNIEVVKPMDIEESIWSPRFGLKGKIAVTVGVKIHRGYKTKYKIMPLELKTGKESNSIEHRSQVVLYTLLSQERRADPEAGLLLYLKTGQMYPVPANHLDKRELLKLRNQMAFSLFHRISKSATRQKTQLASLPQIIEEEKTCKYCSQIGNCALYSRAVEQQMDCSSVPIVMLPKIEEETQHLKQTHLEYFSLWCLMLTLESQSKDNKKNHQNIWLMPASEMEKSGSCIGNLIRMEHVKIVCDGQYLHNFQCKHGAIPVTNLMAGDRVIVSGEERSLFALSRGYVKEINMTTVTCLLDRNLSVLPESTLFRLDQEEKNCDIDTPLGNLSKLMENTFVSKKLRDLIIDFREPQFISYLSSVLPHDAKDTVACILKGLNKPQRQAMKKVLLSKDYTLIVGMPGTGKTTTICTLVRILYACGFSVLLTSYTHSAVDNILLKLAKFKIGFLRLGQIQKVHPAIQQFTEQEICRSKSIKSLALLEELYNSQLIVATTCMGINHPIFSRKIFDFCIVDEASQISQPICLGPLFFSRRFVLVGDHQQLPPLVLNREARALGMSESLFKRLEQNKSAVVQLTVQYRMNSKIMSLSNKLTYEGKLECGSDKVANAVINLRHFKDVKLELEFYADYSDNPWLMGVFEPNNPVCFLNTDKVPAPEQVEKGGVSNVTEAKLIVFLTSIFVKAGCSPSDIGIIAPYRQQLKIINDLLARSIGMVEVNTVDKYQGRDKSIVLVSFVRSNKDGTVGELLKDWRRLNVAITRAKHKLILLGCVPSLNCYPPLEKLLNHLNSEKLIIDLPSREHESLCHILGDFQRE
Briefly: EMSA; similar affinity as WT; EMSA: 25 mM Tris-HCl pH 8.0, 0.1 mg/ml BSA, 5 mM EDTA, with or without 1 mM DTT, 30 min on ice; 4-5 nM FAM-DNA or 1 nM 32P-DNA. The following applies: protein: recombinant; tags: FLAG; 5' flap 32 nt on strand 1; 1:2 and 2:3 paired.

In series [2] the target is T1, DNA2 D277A. The experiment in a line: EMSA; EMSA: 25 mM Tris-HCl pH 8.0, 0.1 mg/ml BSA, 5 mM EDTA, with or without 1 mM DTT, 30 min on ice; 4-5 nM FAM-DNA or 1 nM 32P-DNA. The conditions noted are these: protein: recombinant; tags: FLAG; label: 3' 32P cordycepin on X04; fork 1:2, 5' arm 32 nt, 3' arm 30 nt. In general terms: In EMSA bound probe runs differently from free probe, usually more slowly.

B1: 5' flap (FAM) (mixed)
DNA 1: ATCGATAGTCGGATCCTCTAGACAGCTCCATGTAGCAAGGCACTGGTAGAATTCGGCAGCGT
DNA 2: GACGCTGCCGAATTCTACCAGTGCCTTGCTAGGACATCTTTGCCCACCTGCAGGTTCACCC
DNA 3: TGGGTGAACCTGCAGGTGGGCAAAGATGTCC
As to B1, in the series with DNA2 D277A [1], the binding result is recorded as “binds”.

B2: Y-structure (32P) (mixed)
DNA 1: B1 DNA 1
DNA 2: B1 DNA 2
B2: the binding result in the series with DNA2 D277A [2] is listed as “binds”.
